According to the Human Domainome abundance scans (Beltran et al. 2025):
± gives the uncertainty stated by the source.

B1: Intersectin-1, residues 909 to 971; numbered along this chain, Q15811 (parent)
chain: QGEKVEGLQAQALYPWRAKKDNHLNFNKNDVITVLEQQDMWWFGEVQGQKGWFPKSYVKLISG

Variants of: B1
Assay: abundance fitness (aPCA) (normalised: wild type 0, dead -1); higher = more abundant; growth selection in yeast, the domain comes from the species named
Details: Homo sapiens

Going from QGEKVEGLQAQALYPWRAKKDNHLNFNKNDVITVLEQQDMWWFGEVQGQKGWFPKSYGKLISG [V58G] to QGEKVEGLQAQALYPWRAKIDNHLNFNKNDVITVLEQQDMWWFGEVQGQKGWFPKSYVKLISG [K20I], the abundance fitness rises from -0.881 ± 0.15 to -0.092 ± 0.053.

Going from QGEKVEGLQAQALYPWRAKWDNHLNFNKNDVITVLEQQDMWWFGEVQGQKGWFPKSYVKLISG [K20W] to QGEKVEGLQAQALYPWRAKNDNHLNFNKNDVITVLEQQDMWWFGEVQGQKGWFPKSYVKLISG [K20N], the abundance fitness rises from -0.156 ± 0.06 to 0.053 ± 0.054.

First: QGEKVEGLQAQALYPWRAKHDNHLNFNKNDVITVLEQQDMWWFGEVQGQKGWFPKSYVKLISG [K20H]
Second: QGEKVEGLQAQALYPWRAKKDNHLNFNKNDVITVLEQQDMWWFGEVQGQKGWWPKSYVKLISG [F53W]
The abundance fitness of the first is higher: -0.133 ± 0.06 for the first, -0.798 ± 0.18 for the second.

QGEKVEGLQAQALYPWRAKKDNHLNFNKNDVITVLEQQDMWWFGEVQGQKGWFPKSYVKLIQG [S62Q] and QGEKVEGLQAQALYPWRAKKDNHLNFNKNDVITVLEQQDMWWFGEVQGQKGWFPKSYVKLING [S62N] are within error of each other in abundance fitness: 0.067 ± 0.45 for the first, -0.151 ± 0.22 for the second.

QGEKVEGLQAQALYPWRAKKDNHLNFNKNDVITVLEQQDMWWFGEVQGQKGWFPKSYVKLITG [S62T] and QGEKVEGLQAQALYPWRAKKDNHLNFNKNDVITVLEQQDMWWFGEVQGQKGWFPKSYVKLIYG [S62Y] are within error of each other in abundance fitness: -0.209 ± 0.19 for the first, -0.626 ± 0.38 for the second.

QGEKVEGLQAQALYPWRAKKDNHLNFNKNDVITVLEQQDMWWFGEVQGQKGWFPKEYVKLISG [S56E] and QGEKVEGLQAQALYPWRAKKDNHLNFNVNDVITVLEQQDMWWFGEVQGQKGWFPKSYVKLISG [K28V] are within error of each other in abundance fitness: -0.178 ± 0.18 for the first, -0.256 ± 0.14 for the second.

Compared with QGEKVEGLQAQALYPWRAKKDNHLNFNINDVITVLEQQDMWWFGEVQGQKGWFPKSYVKLISG [K28I], QGEKVEGLQAQALYPWRAKKDNHLNFNKNEVITVLEQQDMWWFGEVQGQKGWFPKSYVKLISG [D30E] is higher in abundance fitness: -0.649 ± 0.42 for the first, -0.089 ± 0.04 for the second.

Compared with QGEKVEGLQAQALYPWRAKKDNHLNFNKNIVITVLEQQDMWWFGEVQGQKGWFPKSYVKLISG [D30I], QGEKVEGLQAQALYPWRAKKDNHLNFNKNVVITVLEQQDMWWFGEVQGQKGWFPKSYVKLISG [D30V] is higher in abundance fitness: -0.677 ± 0.054 for the first, -0.357 ± 0.035 for the second.

QGEKVEGLQAQALYPWRAKKDNHLNFNKNDVITVLEQQDMWWFGEVQGQKGWFPKSYVKSISG [L60S] and QGEKVEGLQAQALYPWRAKKDNHLNFNKNDVITVLEQQDMWWFGEVQGQKGWFPKSYVKLSSG [I61S] are within error of each other in abundance fitness: -0.18 ± 0.095 for the first, -0.301 ± 0.13 for the second.

First: QGEKVEGLQAQALYPWRAKKDNHLNFNKNDVITVLEQCDMWWFGEVQGQKGWFPKSYVKLISG [Q38C]
Second: QGEKVEGLQAQALYPWRAKKDNHLNFNKNDVITVLEQQDMWWFGEVQGQKGWFFKSYVKLISG [P54F]
The abundance fitness of the first is higher: -0.04 ± 0.18 for the first, -0.8 ± 0.46 for the second.

QGEKVEGLQAQALYPWRAKKDNHLNFNKNDVITVLEHQDMWWFGEVQGQKGWFPKSYVKLISG [Q37H] and QGEKVEGLQAQALYPWRAKKDNHLNFNKNDVITVLEQQDMWWFGLVQGQKGWFPKSYVKLISG [E45L] are within error of each other in abundance fitness: -0.274 ± 0.31 for the first, -0.076 ± 0.096 for the second.

QGEKVEGLQAQALYPWRAKKDNHLNFNKNDVITVLEQQDMWWFGGVQGQKGWFPKSYVKLISG [E45G] and QGEKVEGLQAQALYPWRAKKDNHLNFNKNDVITVLEQQDMWWFGWVQGQKGWFPKSYVKLISG [E45W] are within error of each other in abundance fitness: -0.263 ± 0.11 for the first, -0.274 ± 0.15 for the second.

QGEKVEGLQAQALYPWRAKKDNHLNFNKNDVITVLEQQDMWWFGEFQGQKGWFPKSYVKLISG [V46F] and QGEKVEGLQAQALYPWRAKKDNHLNFNKNDVITVLEQQDMWWFGESQGQKGWFPKSYVKLISG [V46S] are within error of each other in abundance fitness: -0.101 ± 0.34 for the first, -0.001 ± 0.13 for the second.

QGEKVEGLQAQALYPWRADKDNHLNFNKNDVITVLEQQDMWWFGEVQGQKGWFPKSYVKLISG [K19D] and QGEKVEGLYAQALYPWRAKKDNHLNFNKNDVITVLEQQDMWWFGEVQGQKGWFPKSYVKLISG [Q9Y] are within error of each other in abundance fitness: 0.026 ± 0.058 for the first, -0.047 ± 0.18 for the second.

QGEKVEGLQAVALYPWRAKKDNHLNFNKNDVITVLEQQDMWWFGEVQGQKGWFPKSYVKLISG [Q11V] and QGEKVEGLQAEALYPWRAKKDNHLNFNKNDVITVLEQQDMWWFGEVQGQKGWFPKSYVKLISG [Q11E] are within error of each other in abundance fitness: -0.364 ± 0.16 for the first, -0.33 ± 0.13 for the second.

First: QGEKVEGLQAQALYPWRAKKDNHLNFNKNDVITVLEQQDMWWFGEVLGQKGWFPKSYVKLISG [Q47L]
Second: QGEKVEGLQAQALYPWRAKKDNHLNFNKNDVITVLEQQDMWWFGEVGGQKGWFPKSYVKLISG [Q47G]
The abundance fitness of the first is lower: -0.254 ± 0.11 for the first, -0.009 ± 0.073 for the second.

QGEKVEGLQAQALYPWRAKKDNHLNFNKNDVITVLEQQDMWWFGEVKGQKGWFPKSYVKLISG [Q47K] and QGEKVEGLQAQALYPWRAKKDNHLNFNKNDVITVLEQQDMWWFGEVWGQKGWFPKSYVKLISG [Q47W] are within error of each other in abundance fitness: 0.027 ± 0.15 for the first, -0.125 ± 0.17 for the second.

QGEKVEGLQAQALYPWRAKKDNHLNFNKNDVITVLEQQDMWWFGEVNGQKGWFPKSYVKLISG [Q47N] and QGEKVEGLQAQALYPWRNKKDNHLNFNKNDVITVLEQQDMWWFGEVQGQKGWFPKSYVKLISG [A18N] are within error of each other in abundance fitness: -0.084 ± 0.34 for the first, -0.086 ± 0.065 for the second.

QGEKVEGLQAQALYPWREKKDNHLNFNKNDVITVLEQQDMWWFGEVQGQKGWFPKSYVKLISG [A18E] and QGEKVLGLQAQALYPWRAKKDNHLNFNKNDVITVLEQQDMWWFGEVQGQKGWFPKSYVKLISG [E6L] are within error of each other in abundance fitness: -0.234 ± 0.12 for the first, -0.1 ± 0.12 for the second.

Compared with KGEKVEGLQAQALYPWRAKKDNHLNFNKNDVITVLEQQDMWWFGEVQGQKGWFPKSYVKLISG [Q1K], QGEKVEGLQAQALYPWRAKKDNHLNFNKNDVITVLEQQDMWWFGEVQGQKGWFPKSCVKLISG [Y57C] is higher in abundance fitness: -0.496 ± 0.11 for the first, -0.153 ± 0.14 for the second.

Going from QGEKVEGLQAQALYPWRAKKDNHLNFNKNDVITVLEQQDMWWFGEVQGQKGWFPKSPVKLISG [Y57P] to QGEKVEGLQAQALYPWRAKKDNHLNFNKNDVITVLEQQDMWWFGEVQGQKGWFPKSTVKLISG [Y57T], the abundance fitness rises from -1.02 ± 0.4 to -0.013 ± 0.16.
